Test results published in patent US20260242729A1.

Target: CD28 on the surface of PBMCs and T cells (human) (UniProt P10747)
Assay: flow cytometry; CD28 positive fraction after Fab-multimer magnetic selection, D-biotin release and washing; remaining CD28.3 Fab monomers detected with the α-Ig kappa mAb; live (PI-negative) CD3+ cells; right dot plot

percentage of cells within gate: 5.91%
Substance: αCD28 Fab fragment derived from the anti-human CD28 antibody CD28.3, heavy chain C-terminally fused to Twin-Strep-tag (monomeric Fab)
